Experimental data from patent US20190194299A1.

Tests used:
[1] = target: Human DPP4 on stable 293T cells (293T-hDPP4) (human) (UniProt P27487)
[2] = target: S1(349-590)-hFc (MERS-CoV; human) (UniProt K9N5Q8); test: BLI (Octet), wild type RBD-hFc

With “S1(349-590)-hFc (from UniProt K9N5Q8 349-590) (Fc fusion)” the EC50 [1] was 0.015 µg/mL.

For “Recombinant soluble human DPP4 (from UniProt P27487 29-766) (receptor)”, the Kd [2] was 21.4 nM.
